Reference: patent US20170319711A1

Key:
[1] = target: Human 5T4 antigen on cells (human) (UniProt Q13641); test: flow cytometry, MDAMB468 cells
[2] = target: Human 5T4 antigen on cells (human) (UniProt Q13641); test: flow cytometry, PC3mm2 cells
[3] = target: Human 5T4 antigen on cells (human) (UniProt Q13641); test: flow cytometry, A431 cells

Measured: Mean Fluorescent Intensity

Human 5T4 antigen on cells (human), sequence (Q13641 32-420 limits assumed): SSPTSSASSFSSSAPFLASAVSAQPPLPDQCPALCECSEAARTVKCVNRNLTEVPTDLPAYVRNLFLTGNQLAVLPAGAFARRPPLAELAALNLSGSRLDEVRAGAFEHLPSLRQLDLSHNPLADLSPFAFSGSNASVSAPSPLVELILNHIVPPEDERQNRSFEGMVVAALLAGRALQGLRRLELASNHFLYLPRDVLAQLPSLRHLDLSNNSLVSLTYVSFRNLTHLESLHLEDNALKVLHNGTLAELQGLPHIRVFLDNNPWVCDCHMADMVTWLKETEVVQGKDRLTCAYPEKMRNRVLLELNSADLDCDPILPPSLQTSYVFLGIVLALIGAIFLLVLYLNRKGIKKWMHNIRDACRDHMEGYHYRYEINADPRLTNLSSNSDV

IgG control (antibody)
< 100: [1] | [2] | [3]
